These are literature values, as cited in PMC9456187, “The Ambivalence of Connexin43 Gap Peptides in Cardioprotection of the Isolated Heart against Ischemic Injury” (International Journal of Molecular Sciences, 2022).

The series has as its system isolated subsarcolemmal mitochondria, calcium-induced mitochondrial permeability transition. The settings on record: rat heart, Gap27 at substantially higher concentrations than in present study, ref [34]. The source says: The detailed mechanisms behind IPC are still debated, but multiple studies confirm that mitochondria play a crucial role in the observed infarct size limitation. IPC promotes translocation of signaling kinases to mitochondria, changes volume regulation of mitochondria, opens mitochondrial potassium channels and delays ROS-induced mitochondrial permeability transition. Connexin43 can be detected in subsarcolemmal mitochondria using immunoblotting of extracts from isolated mitochondria. The role of connexin43 in mitochondria has recently been reviewed ...

B1: Fibroblast growth factor 2: Fibroblast growth factor 2 triggers the protection of rat heart mitochondria (protein, UniProt P13109 10-154, looked up)
Fibroblast growth factor 2: PALPEDGGGAFPPGHFKDPKRLYCKNGGFFLRIHPDGRVDGVREKSDPHVKLQLQAEERGVVSIKGVCANRYLAMKEDGRLLASKCVTEECFFFERLESNNYNTYRSRKYSSWYVALKRTGQYKLGSKTGPGQKAILFLPMSAKS
For the molecule B1, the “Effect on (FGF2-induced) protection of mitochondria against calcium-induced permeability transition (in words)” value is “triggers the protection of rat heart mitochondria”.
